US20250154240A1, “ANTI-HUMAN CXCL1 ANTIBODY” (CHIOME BIOSCIENCE INC., priority 2022, published 2025)

B1: Hu4A-2F7: humanized antibody VH1/VL1; VH SEQ ID NO: 72, VL SEQ ID NO: 74 (antibody, V domains shown)
VH: QVTLKESGPALVKPTQTLTLTCTFSGFSLSTSGMGVDWIRQPPGKALEWLAHIWWDDDKYYNPSLKSQLTISKDTSKNQVVLTMTNMDPVDTATYYCARSYGYDMDYYAMDYWGQGTTVTVSS
VL: DIQMTQSPSSLSASVGDRVTITCRASQEISGYLSWLQQKPGKAPKRLIYAASTLSSGVPSRFSGSGSGTDFTLTISSLQPEDFATYYCLQYASYPPWTFGGGTKVEIK
B2: modified human antibody 028-8-12: human antibody 028-8-12 with amino acid modifications in CDR and VL regions; VH SEQ ID NO: 63, VL SEQ ID NO: 67 (antibody, V domains shown)
VH: EVQLLESGGGLVQPGGSLRLSCAASGFTFSELSMSWVRQAPGKGLEWVSAISGSGGSTYYASSVKGRFTISRDNSKNTLYLQMNSLRAEDTAVYYCAREGGRLEPYYYYYAMDVWGQGTPVTVSS
VL: DIQMTQSPSSLSASVGDRVTITCRASQSISDNLHWYQQKPGKAPKLLIYDASNLESGVPSRFSGSGSGTDFTLTISSLQPEDFATYYCQQYYSTPLTFGQGTKLEIK
B3: Hu1A-7H10: humanized antibody VH1/VL1; VH SEQ ID NO: 68, VL SEQ ID NO: 70 (antibody, V domains shown)
VH: QVTLKESGPVLVKPTETLTLTCTVSGFSSTTYGVHWVRQPPGKALEWLGVIWAGGSTNYNAALMSRLTISKDTSKSQVVLTMTNMDPVDTATYYCATQYHYPFAYWGQGTLVTVSS
VL: DIQMTQSPSSLSASVGDRVTITCKASENVGIYVSWYQQKPGKAPKLMIYGASNRNTGVPSRFSGSGSGTDFTLTISSLQPEDFATYYCGQSYSYPLTFGGGTKVEIK

These molecules were tested on OCUM-12 gastric cancer cell line (assay: Antitumor activity test, model with OCUM-12 orthotopic transplantation (prevention model)). Details: 400 μg/head intraperitoneally twice a week, 3 weeks; compared to hIgG1 antibody.
Format: in vivo, mouse
Method: A model with OCUM-12 orthotopic transplantation was prepared to evaluate the above 4 types of candidate antibodies for their in vivo CXCR2 migration inhibitory activity and antitumor activity in a xenograft model with OCUM-12 orthotopic transplantation.
For use as mice, female nude mice (BALB/cAJcl-nu/nu) at 5 to 6 weeks of age were purchased from CLEA Japan, Inc., Japan. For use as human cancer cells, a gastric cancer cell line, OCUM-12, was provided by University Public Corporation Osaka, Japan.
OCUM-12 cells were cultured in D-MED medium (FUJIFILM Wako Pure Chemical Corporation, Japan) supplemented with 10% fetal bovine serum (FBS; Sigma-Aldrich Corporation) and 1/100 volumes of a penicillin-streptomycin mixture (Nacalai Tesque, Inc., Japan). The cells to be transplanted were detached with 0.25% trypsin/0.02% EDTA (Thermo Fisher Scientific) and washed with PBS, and 4× 10^5 cells per mouse were transplanted into the gastric wall of each mouse.
On the day following the above transplantation, the mice were randomized into groups (8 or 6 mice per group) and intraperitoneally administered with PBS as a control and with 4 types of candidate antibodies (1A-7H10, 4A-2F7, 5A-5E11 and 028-8-12) and 3 types of non-candidate antibodies (1A-3C6, 1A-2H3 and 4A-5B11) at a dose of 20 mg/kg. In addition, mouse IgG1 as a control was intraperitoneally administered at a dose of 20 mg/kg, and 3 types of antibodies (5A-5E11, 1A-4H10 and 4A-7G7) among the candidate antibodies were intraperitoneally administered at a dose of 20 mg/kg. The administration of these antibodies was then continued with a frequency of twice a week until the completion of the test. After 3 weeks had passed from the transplantation, the mice were sacrificed, and the short- and long-axis diameters of tumors formed in their gastric walls were each measured with a caliper. The tumor size was calculated according to the following: 1/2 short-axis diameter (mm)×1/2 long-axis diameter (mm)×3.14.
(§1) Navarixin is among small molecular compounds that act on CXCR2 and inhibit CXCL1-CXCR2 signaling. […] Then, using a model with OCUM-12 orthotopic transplantation, the migration inhibition of CXCR2-expressing cells and antitumor activity were evaluated in vivo for Navarixin. As a vehicle, ultrapure water containing 20% 2-hydroxypropyl-β-cyclodextrin (FUJIFILM Wako Pure Chemical Corporation, Japan) was used. Navarixin (MedChemExpress) was dissolved in ultrapure water containing 20% 2-hydroxypropyl-β-cyclodextrin, and orally administered at a dose of 100 mg/kg/day in a schedule of once a day for 5 consecutive days, followed by a 2-day withdrawal.
The humanized antibodies were evaluated for their in vivo antitumor activity and CXCR2 migration inhibitory activity in a xenograft model with OCUM-12 orthotopic transplantation. Procedures for the evaluation are shown below.
For use as mice, female nude mice (BALB/cAJcl-nu/nu) at 5 to 6 weeks of age were purchased from CLEA Japan, Inc., Japan. For use as human cancer cells, gastric cancer cell line, OCUM-12, was provided by Osaka Metropolitan University, Japan.
OCUM-12 cells were cultured in D-MED medium (FUJIFILM Wako Pure Chemical Corporation, Japan) supplemented with 10% fetal bovine serum (hereinafter abbreviated as FBS; Sigma-Aldrich Corporation) and 1/100 volumes of a penicillin-streptomycin mixture (Nacalai Tesque, Inc., Japan). The cells to be transplanted were detached with 0.25% trypsin/0.02% EDTA (Thermo Fisher Scientific) and washed with PBS, and 4×10^5 cells per mouse were transplanted into the gastric wall of each mouse. On the day following the transplantation, the mice were randomized into groups (8 mice per group) and intraperitoneally administered with test antibodies at a dose of 400 μg/head. PBS was intraperitoneally administered in a volume of 200 μL with a frequency of twice a week for 3 weeks, starting from the day following the transplantation. […]

Row | Molecule | Antitumor activity (tumor area)
1 | B1 | significantly suppress an increase in the tumor area
2 | B2 | significantly suppress an increase in the tumor area
3 | B3 | significantly suppress an increase in the tumor area

The molecules below were run on CXCR2-expressing cells (assay: In vivo migration inhibitory activity test on CXCR2-expressing cells, OCUM-12 orthotopic transplantation (prevention model)). Details: 400 μg/head intraperitoneally twice a week, 3 weeks; compared to hIgG1 antibody.
Set-up: species or system mouse
Text: (§2) The stomachs after measurement of the tumor size in [3-1] above were excised and fixed overnight at room temperature with a 10% neutral buffered formalin solution (Wako Pure Chemical Industries, Ltd., Japan), followed by replacement with PBS. Then, paraffin embedding and section preparation were outsourced to Applied Medical Research Laboratory, Japan. The prepared gastric tumor sections were immunohistologically stained with an anti-CXCR2 antibody to evaluate in vivo CXCR2 cell migration inhibitory activity. The sections were deparaffinized and rehydrated, and then treated to inactivate endogenous peroxidase. After antigen activation treatment, the sections were blocked with PBS containing 2% skimmed milk and 0.1% Tween-20, and reacted overnight at 4° C. with an anti-CXCR2 antibody (Biorbyt) as a primary antibody, which had been diluted to 0.3 μg/mL with the blocking solution. After washing with PBS containing 0.1% Tween-20, the sections were reacted at room temperature for 1 hour with an HRP-labeled goat anti-rabbit IgG antibody (Abcam) as a secondary antibody. After washing with a washing solution, a simple stain DAB solution (5052, Nichirei Corporation, Japan) was used to cause color development. After images of the stained tissues were captured with an Explore (Olympus Corporation, Japan), imaging software CellSens (Olympus Corporation, Japan) was used to calculate CXCR2-positive cells per unit area.
as §1
as §2, with “after measurement were excised” for “after measurement of the tumor size in [3-1] above were excised”, “and 0.1% Tween-20 (hereinafter referred to as the blocking solution), and reacted” for “and 0.1% Tween-20, and reacted”, “been diluted 1667-fold with the” for “been diluted to 0.3 μg/mL with the”, “to calculate positive cells per” for “to calculate CXCR2-positive cells per”
The dose-response relationship between antibody dose and in vivo antitumor activity or CXCR2 migration inhibitory activity was evaluated in a xenograft prevention model with OCUM-12 orthotopic transplantation. A prevention model is a model designed to start antibody administration from the day following tumor transplantation. […]

Row | Molecule | Migration of CXCR2-expressing cells (positive cells per unit area)
4 | B1 | significantly suppress the migration of CXCR2-expressing cells
5 | B2 | significantly suppress the migration of CXCR2-expressing cells
6 | B3 | significantly suppress the migration of CXCR2-expressing cells
